Source: the DeepSol protein solubility set

Test: soluble on expression in E. coli; label from the status in PepcDB or PDB records

Sequence | soluble on expression in E. coli
GSGKNLIMIQVEALQGFVVNKSINGKEITPNLNKWINKSLYFDNYFYQVAQGNTSDAEFMSLNSLYPAQSGAAYYTYAGNTFNSIPKDLGDKGYYTAALHGYNEGFWNRNVMYKSEKFDDFYGQTSYKNDEVVGMGLSDESFLNQSLAKMKTFKQPYFSFLITLSSHYPFNDTAGYEKYTMNKLDVGEYKDTLLGNYFEGIHYTDEQLGKFLDKLDKEGLTKNSIIVLYGDHFAIPKENINQLYSFEGIKDPTDLTWYEYQKVPMFIHFPDDEHKGVNHTYSGQMDIYPTIANLYNISNNYMFGEDILNVKDGDSTNVTFRNGSFTDGK | not soluble
GSHMAPADYFRVLVQQFEVQLQQYRQQIEELENHLATQANNSHITPQDLSMAMQKIYQTFVALAAQLQSIHENVKVLKEQYLSYRKMFLGDAG | soluble
GSHMGPVEILPFLYLGSAYHASKCEFLANLHITALLNVSRRTSEACMTHLHYKWIPVEDSHTADISSHFQEAIDFIDCVREKGGKVLVHSEAGISRSPTICMAYLMKTKQFRLKEAFDYIKQRRSMVSPNFGFMGQLLQYESEILPSTPNPQPPSCQGEAAGSSLIGHLQTLSPDMQGAYCTFPASVLAPVPTHSTVSELSRSPVATATSC | soluble
GSHMIVQIGRREEFDKKLLGEMHKLRAQVFKERKGWDVSVIDEMEIDGYDALSPYYMLIQEDGQVFGCWRILDTTGPYMLKNTFPELLHGKEAPCSPHIWELSRFAINSGQKGSLGFSDCTLEAMRALARYSLQNDIQTLVTVTTVGVEKMMIRAGLDVSRFGPHLKIGIERAVALRIELNAKTQIALYGGVLVEQRLAVS | soluble
GSHMNPLASLTTDKNDLYINWLKSLSFFQTNSSCAEALVKVIPHYHNKLIDFSQVLQLVFSASEKFPIQENQPLPEQLMFLSNLEKQTPFAKAVGSSIYKLVTGKNLSLDFASQILKEASILEH | soluble
GSHMQAEILLTLKLQQKLFADPRRISLLKHIALSGSISQGAKDAGISYKSAWDAINEMNQLSEHILVERATGGKGGGGAVLTRYGQRLIQLYDLLAQIQQKAFDVLSDDDALPLNSLLAAISRFSLQTSARNQWFGTITARDHDDVQQHVDVLLADGKTRLKVAITAQSGARLGLDEGKEVLILLKAPWVGITQDEAVAQNADNQLPGIISHIERGAEQCEVLMALPDGQTLCATVPVNEATSLQQGQNVTAYFNADSVIIATLC | soluble
GSHMRLGAQSIQPTANLDRTDDLVYLNVMELVRAVLELKNELAQLPPEGYVVVVKNVGLTLRKLIGSVDDLLPSLPSSSRTEIEGTQKLLNKDLAELINKMRLAQQNAVTSLSEECKRQMLTASHTLAVDAKNLLDAVDQAKVLANLAHPPAE | soluble
GSHMSAEASARPLRVGSRVEVIGKGHRGTVAYVGATLFATGKWVGVILDEAKGKNDGTVQGRKYFTCDEGHGIFVRQSQIQVFEDGADTTSPETPDS | soluble
GSHMSKKILIVESDTALSATLRSALEGRGFTVDETTDGKGSVEQIRRDRPDLVVLAVDLSAGQNGYLICGKLKKDDDLKNVPIVIIGNPDGFAQHRKLKAHADEAVAKPVDADQLVERAGALIGFPE | soluble
GSHMSPSDLHLPVPGHPIAAIATPVGVGALAIVRISGAGVLDLADRVFRKVHGSGKLAEAAGYTAHFGRLYDGEEMVDEVIALVFRAPRSFTAEQMVEFTCHGGPVVVGRVLRLMLDNGCRLAEPGEFTRRAFLNGRIDLLQAEAIGEMIHARTESAYRTAVSQMKGDLSVRLGGLREQLIRSCALIELELDFSEEDVEFQSRDELTMQIETLRSEVNRLIDSYQHGRIVSEGVSTVIAGKPNAGKSTLLNTLLGQERAIVSHMPGTTRDYIEECFIHDKTMFRLTDTAGLREAGEEIEHEGIRRSRMKMAEADLILYLLDLGTERLDDELTEIRELKAAHPAAKFLTVANKLDRAANADALIRAIADGTGTEVIGISALNGDGIDTLKQHMGDLVKNLDKLHEASVLVTSLRHYEALRNASDALQNALELIAHESETELIAFELRAALDYVGQITGKVVNEEVLNTIFDKFCIGK | soluble
GSHMTRTRMENELIVSKNMQNIIIAGNGPSLKNINYKRLPREYDVFRCNQFYFEDKYYLGKKIKAVFFNPGVFLQQYHTAKQLILKNEYEIKNIFCSTFNLPFIESNDFLHQFYNFFPDAKLGYEVIENLKEFYAYIKYNEIYFNKRITSGVYMCAIAIALGYKTIYLCGIDFYEGDVIYPFEAMSTNIKTIFPGIKDFKPSNCHSKEYDIEALKLLKSIYKVNIYALCDDSILANHFPLSININNNFTLENKHNNSINDILLTDNTPGVSFYKNQLKADNKIMLNFY | soluble
GSHVFKSRLQEYAQKYKLPTPVYEIVKEGPSHKSLFQSTVILDGVRYNSLPGFFNRKAAEQSAAEVALRELAK | soluble
GSIGLEAEIETTTDETDDGTNTVSHILNVLKDATPIEDVFSFNYPEGIEGPDIKYKKEHVKYTYGPTFLLQFKDKLNVKADAEWVQSTASKIVIPPGMGR | soluble
GSKQVITEQIANDLVKEVVNSSVISIVKREFSEANYRKDFIDTMTRELYDAFLHERLYLIYMDSRAELKRNSTLKKKFFEKWQAS | soluble
GSLRPLSEVNQHSQLMAQLVEVIEDSFQMKVNKESVNYLRLIRHIRFTIERIKKEEPTKEPEKLMLLLKNEYPLCYNTAWKLIKILQQTLKKPVHEAEAVYLTLHLIPINQ | soluble
GSMAEGSAVSDPQHAARLLRALSSFREESRFCDAHLVLDGEEIPVQKNILAAASPYIRTKLNYNPPKDDGSTYKIELEGISVMVMREILDYIFSGQIRLNEDTIQDVVQAADLLLLTDLKTLCCEFLEGCIAAENCIGIRDFALHYCLHHVHYLATEYLETHFRDVSSTEEFLELSPQKLKEVISLEKLNVGNERYVFEAVIRWIAHDTEIRKVHMKDVMSALWVSGLDSSYLREQMLNEPLVREIVKECSNIPLS | soluble
GSMASAAVANYEEEIVRPVADFSPSLWGDQFLSFSIKNQVAEKYAKEIEALKEQTRNMLLATGMKLADTLNLIDTIERLGISYHFEKEIDDILDQIYNQNSNCNDLCTSALQFRLLRQHGFNISPEIFSKFQDENGKFKESLASDVLGLLNLYEASHVRTHADDILEDALAFSTIHLESAAPHLKSPLREQVTHALEQCLHKGVPRVETRFFISSIYDKEQSKNNVLLRFAKLDFNLLQMLHKQELAQVSRWWKDLDFVTTLPYARDRVVECYFWTLGVYFEPQYSQARVMLVKTISMISIVDDTFDAYGTVKELEAYTDAIQRWDINEIDRLPDYMKISYKAILDLYKDYEKELSSAGRSHIVCHAIERMKEIVRNYNVESTWFIEGYTPPVSEYLSNALATTTYYLLATTSYLGMKSATEQDFEWLSKNPKILEASVIICRVIDDTATYEVEKSRGQIATGIECCMRDYGISTKEAMAKFQNMAETAWKDINEGLLRPTPVSTEFLTPILNLARIIEVTYIHNLDGYTHPEKVLKPHIINLLVDSIKI | soluble
GSMEQFELFSIDKFKCNSEAKYYLNIIEGEWHPQDLNDSPLKFILSTSDDSDYICKYINTEHKQLTLYNKNNSSIVIEIFIPNDNKILLTIMNTEALGTSPRMTFIKHK | soluble
GSMSAKDERAREILRGFKLNWMNLRDAETGKILWQGTEDLSVPGVEHEARVPKKILKCKAVSRELNFSSTEQMEKFRLEQKVYFKGQCLEEWFFEFGFVIPNSTNTWQSLIEAAPESQMMPASVLTGNVIIETKFFDDDLLVSTSRVRLFYV | soluble
GSNRAIRTEKIICRDVARGYENVPIPCVNGVDGEPCPEDYKYISENCETSTMNIDRNITHLQHCTCVDDCSSSNCLCGQLSIRCWYDKDGRLLQEFNKIEPPLIFECNQACSCWRNCKNRVVQSGIKVRLQLYRTAKMGWGVRALQTIPQGTFICEYVGELISDAEADVREDDSYLFDLDNKDGEVYCIDARYYGNISRFINHLCDPNIIPVRVFMLHQDLRFPRIAFFSSRDIRTGEELGFDYGDRFWDIKSKYFTCQCGSEKCKHSAEAIALEQSRLARLD | soluble
GSPASGTSLSAAIHRTQLWFHGRISREESQRLIGQQGLVDGLFLVRESQRNPQGFVLSLCHLQKVKHYLILPSEEEGRLYFSMDDGQTRFTDLLQLVEFHQLNRGILPCLLRHCCTRVAL | soluble
